Source: publication PMC5452035 (2017)
Non-standard residues stand in square brackets, D forms with d. No end group written: not given here. pT = C[C@@H](OP(=O)(O)O)[C@H](N)C(=O)O; FAM = 5,6-carboxyfluorescein

Target: T1, Rtt103p CID Q19A (Saccharomyces cerevisiae)
T1 chain: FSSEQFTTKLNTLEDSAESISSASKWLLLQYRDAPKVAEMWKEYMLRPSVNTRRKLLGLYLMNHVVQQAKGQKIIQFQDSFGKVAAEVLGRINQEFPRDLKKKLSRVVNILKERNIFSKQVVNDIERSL
Experiment: FP

Question: Which Kd does the source give for {FAM}-PSYSP[pT]SPSYSPTSPS [FAM-PSYSP(pT)SPSYSPTSPS] here?
Answer: 48 µM
